Test results from US11541126B1, “Anti-ASGR1 antibody TLR8 agonist comprising conjugates and uses thereof” (Silverback Therapeutics, Inc., priority 2020, dated 2023).
Where a chain is given by its changes, count along the chain named. Names may count otherwise. One block for each molecule: values may come before it.

Target: T1, HepG2 cells (which express ASGR1) (Homo sapiens, UniProt P07306)
T1 construct: endogenous in cells; host or cells: HepG2
T1 sequence (P07306 1-291): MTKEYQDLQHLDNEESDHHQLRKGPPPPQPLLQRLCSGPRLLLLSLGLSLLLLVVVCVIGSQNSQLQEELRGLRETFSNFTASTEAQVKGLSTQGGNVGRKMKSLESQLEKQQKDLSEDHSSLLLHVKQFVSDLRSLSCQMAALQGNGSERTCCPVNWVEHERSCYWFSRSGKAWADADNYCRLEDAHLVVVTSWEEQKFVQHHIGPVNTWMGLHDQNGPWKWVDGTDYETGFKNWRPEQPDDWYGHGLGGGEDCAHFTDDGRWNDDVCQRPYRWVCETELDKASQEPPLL
Experiment: Guava HepG2 cell binding screen of humanized anti-ASGR1 clones
Set-up: unit not given here
Conditions: humanized G2D clones (Table 5); two numbers per cell, not explained
Protocol: Hybridomas producing monoclonal antibodies (mAbs) specific for human ASGR1 were prepared from Balb/C mice immunized with ASGR1-AviHis at a service provider using their propriety protocol. Antibody heavy and light chain sequences were obtained, amplified, and cloned. Clone supernatants containing the expressed mAbs were screened for binding to a human ASGR1-IgG1Fc fusion protein, and those with a positive signal as measured by enzyme linked immunosorbent assay (ELISA) were screened for cell binding on HepG2 cells (which express ASGR1).

B1: G2D-C (antibody, V domains shown)
VH: EVQLQQSGPELVKPGASVKISCKASGYSFTGYYMHWVKQSHVKSLEWIGRINPNNGATNYNQNFKDKASLTVDKSSSTAYMEFHSLTSEDSAVYYCTSVNFYYWGQGTTLTVSS
VL: DIKMTQSPSSMYASLGERVTITCKASQVINSYLSWFQQKPGKSPETLIYRANTLVDGVPSRFSGSGSGQDYSLTISSLEYEDLGIYYCLQYAEFPYTFGGGTKLEIK
modifications: IgG1 kappa constant regions; Synthetic sequence G2D VH; Synthetic sequence G2D VL
Guava HepG2 Screen: 187/145

B2: hzG2D-12: humanized G2D clone; "G2D VL region ... of clones 1-16, 19-21, 26-29, 31, and 33 ... grafted into the human germline sequence VKI-L1 with JK4" (antibody, V domains shown)
VH: QVQLVQSGAEVKKPGASVKVSCKASGYSFTGYYMHWVRQAPGQRLEWMGRINPNNGATNYNQNFKDKATITRDTSASTAYMELSSLRSEDTAVYYCTSVNFYYWGQGTTLTVSS
VL: DIQMTQSPSSLSASVGDRVTITCKASQVINSYLSWFQQKPGKAPKSLIYRANTLVDGVPSRFSGSGSGTDFTLTISSLQPEDFATYYCLQYAEFPYTFGGGTKVEIK
modifications: Synthetic sequence hzG2.3D VH T28S, R66K, V67A, A93T, R94S, V109L; Synthetic sequence hzG2D VLa
Guava HepG2 Screen: 158/113

B3: hzG2D-14: humanized G2D clone; "G2D VL region ... of clones 1-16, 19-21, 26-29, 31, and 33 ... grafted into the human germline sequence VKI-L1 with JK4" (antibody, V domains shown)
VH: B2 VH with T69S, I70L, R72V, T97A, S98R
VL: B2 VL
modifications: Synthetic sequence hzG2.4D VH T28S, R66K, V67A, T68S, I69L, R71V, V109L; Synthetic sequence hzG2D VLa
Guava HepG2 Screen: 37/16

B5: hzG2D-13: humanized G2D clone; "G2D VL region ... of clones 1-16, 19-21, 26-29, 31, and 33 ... grafted into the human germline sequence VKI-L1 with JK4" (antibody, V domains shown)
VH: B2 VH with K67R, A68V, T69S, I70L, R72V
VL: B2 VL
modifications: Synthetic sequence hzG2.7D VH T28S, T68S, I69L, R71V, A93T, R94S, V109L; Synthetic sequence hzG2D VLa
Guava HepG2 Screen: 140/83

B6: hzG2D-23: humanized G2D clone; "G2D VL region ... of clones 22, 23, 30, 32, and 34-37 ... grafted into the human germline sequence VKI-O2 with JK4" (antibody, V domains shown)
VH: B2 VH with S28T, T69S, I70L, R72V, L110V
VL: B2 VL with F36Y, S46L
modifications: Synthetic sequence hzG2.47D VH R66K, V67A, T68S, I69L, R71V, A93T, R94S; Synthetic sequence hzG2D VLb
Guava HepG2 Screen: 198/131

B8: hzG2D-16: humanized G2D clone; "G2D VL region ... of clones 1-16, 19-21, 26-29, 31, and 33 ... grafted into the human germline sequence VKI-L1 with JK4" (antibody, V domains shown)
VH: B2 VH with T69S, I70L, R72V
VL: B2 VL
modifications: Synthetic sequence hzG2.5D VH T28S, R66K, V67A, T68S, I69L, R71V, A93T, R94S, V109L; Synthetic sequence hzG2D VLa
Guava HepG2 Screen: 165/108

B10: hzG2D-22: humanized G2D clone; "G2D VL region ... of clones 22, 23, 30, 32, and 34-37 ... grafted into the human germline sequence VKI-O2 with JK4" (antibody, V domains shown)
VH: B2 VH with S28T, T69S, I70L, R72V, T97A, S98R, L110V
VL: B2 VL with F36Y, S46L
modifications: Synthetic sequence hzG2.46D VH R66K, V67A, T68S, I69L, R71V; Synthetic sequence hzG2D VLb
Guava HepG2 Screen: None

B11: hzG2D-21: humanized G2D clone; "G2D VL region ... of clones 1-16, 19-21, 26-29, 31, and 33 ... grafted into the human germline sequence VKI-L1 with JK4" (antibody, V domains shown)
VH: B2 VH with S28T, T69S, I70L, R72V, L110V
VL: B2 VL
modifications: Synthetic sequence hzG2.47D VH R66K, V67A, T68S, I69L, R71V, A93T, R94S; Synthetic sequence hzG2D VLa
Guava HepG2 Screen: 199/127

B13: hzG2D-15: humanized G2D clone; "G2D VL region ... of clones 1-16, 19-21, 26-29, 31, and 33 ... grafted into the human germline sequence VKI-L1 with JK4" (antibody, V domains shown)
VH: B2 VH with S28T, T69S, I70L, R72V
VL: B2 VL
modifications: Synthetic sequence hzG2.42D VH R66K, V67A, T68S, I69L, R71V, A93T, R94S, V109L; Synthetic sequence hzG2D VLa
Guava HepG2 Screen: 172/119

Continued, values first:

Guava HepG2 Screen: None
B4: hzG2D-24: humanized G2D clone; "G2D VL region ... of clones 24 and 25 ... grafted into the human germline sequence VKI-A20 with JK4 to generate hzG2D VLc (SEQ ID NO:249)" (antibody, V domains shown)
VH: B2 VH with S28T, T69S, I70L, R72V, T97A, S98R, L110V
VL: B2 VL with F36Y, A43V, S46L, F83V
modifications: Synthetic sequence hzG2.46D VH R66K, V67A, T68S, I69L, R71V; Synthetic sequence hzG2D VLc

Guava HepG2 Screen: 191/116
B7: hzG2D-27: humanized G2D clone; "G2D VL region ... of clones 1-16, 19-21, 26-29, 31, and 33 ... grafted into the human germline sequence VKI-L1 with JK4" (antibody, V domains shown)
VH: B2 VH with S28T, T69S, I70L, R72V, L110V
VL: B2 VL with Q79E, P80Y
modifications: Synthetic sequence hzG2.47D VH R66K, V67A, T68S, I69L, R71V, A93T, R94S; Synthetic sequence hzG2.4D VLa Q79E, P80Y

Guava HepG2 Screen: 145/92
B9: hzG2D-28: humanized G2D clone; "G2D VL region ... of clones 1-16, 19-21, 26-29, 31, and 33 ... grafted into the human germline sequence VKI-L1 with JK4" (antibody, V domains shown)
VH: B2 VH with S28T, T69S, I70L, R72V, L110V
VL: B2 VL with F71Y, T72S
modifications: Synthetic sequence hzG2.47D VH R66K, V67A, T68S, I69L, R71V, A93T, R94S; Synthetic sequence hzG2.5D VLa F71Y, T72S

Guava HepG2 Screen: 185/114
B12: hzG2D-26: humanized G2D clone; "G2D VL region ... of clones 1-16, 19-21, 26-29, 31, and 33 ... grafted into the human germline sequence VKI-L1 with JK4" (antibody, V domains shown)
VH: B2 VH with S28T, T69S, I70L, R72V, L110V
VL: B2 VL with K45E, S46T
modifications: Synthetic sequence hzG2.47D VH R66K, V67A, T68S, I69L, R71V, A93T, R94S; Synthetic sequence hzG2.3D VLa K45E, S46T

Guava HepG2 Screen: None
B14: hzG2D-25: humanized G2D clone; "G2D VL region ... of clones 24 and 25 ... grafted into the human germline sequence VKI-A20 with JK4 to generate hzG2D VLc (SEQ ID NO:249)" (antibody, V domains shown)
VH: B2 VH with S28T, T69S, I70L, R72V, L110V
VL: B2 VL with F36Y, A43V, S46L, F83V
modifications: Synthetic sequence hzG2.47D VH R66K, V67A, T68S, I69L, R71V, A93T, R94S; Synthetic sequence hzG2D VLc
